Results reported in US6331664A, “Acyl-ACP thioesterase nucleic acids from maize and methods of altering palmitic acid levels in transgenic plants therewith” (Dow AgroSciences LLC, priority 1998, dated 2001).
Like-named read-outs stand apart in the source and are kept apart here.

Legend:
maize PTE = test: Thioesterase assay, substrate specificity of partially purified maize PTE expressed in E. coli; type: biochemical; conditions: for Percent Relative Activity: 10 μM radio-labeled acyl-ACP, 30° C., 5 min, 100% = 2.1 units/mg protein
Experimental: (§1) For enzymatic analysis of E coli expressed maize PTE, substrates were made as follows: ACP (Sigma Chemical Co.) was further purified by three cycles of precipitation at pH 4.0 using 10% (v/v) acetic acid followed by resolubilization in 50 mM Tris-HCl, pH 8.0. Carbon-14 or tritium-labeled fatty acids (lauric, 12:0; myristic, 14:0; palmitic, 16:0; stearic, 18:0; and oleic, 18:1) were obtained from Amersham (Arlington Heights, Ill.) or NEN Research Products. Acyl-ACPs were synthesized and purified according to Rock et al., ((1981) Methods in Enzymology, 72:397-403). Thioesterase assays were conducted according to Ohlrogge et al., ((1978) Arch. Biochem. Biophys. 189:382-391) with slight modifications. A standard reaction contained […] Tris-HCl, pH 8.0, 10 μM radio-labeled acyl-ACP (50-58 μCi/μmol), and enzyme in 50 μL. Reactions were conducted at 30° C. for 5 min and terminated with 200 μL of 10% (v/v) acetic acid. Free fatty acids were extracted twice with 1 mL hexane and the organic phases were combined for liquid scintillation counting. Protein concentrations were determined according to Bradford ((1976) Anal. Biochem. […]:248-254). Linear regressions were used for determination of kinetic constants from double reciprocal plots.

maize OTE [1] = test: Thioesterase assay, substrate specificity and Km of maize OTE purified from kernels; type: biochemical; conditions: for activity relative to that observed with 18:1-ACP: C14-labeled acyl-ACPs; for Km: double reciprocal plots
Experimental: as §1
The resolubilized PEG-precipitated material was applied to hydroxyapatite (HA-Ultrogel, Sigma Chemical Co.) which had been previously loaded into a 2.5×20 cm column equilibrated with buffer A. After loading, the column was washed with 300 mL of buffer A and maize OTE activity was eluted with buffer A having 1 M NaCl. Enzymatic activity was followed using C^14 labeled 18:1-ACP as substrate. Production of substrate and biochemical assays were performed as described herein. Fractions having thioesterase activity were pooled and desalted to 20 mM Tris, pH 7.0, 0.4 mM DTT (buffer B) on PD-10 columns (Pharmacia). The desalted fraction was then applied to a MonoQ HR 10/10 column (Pharmacia) and the enzyme was eluted using a linear gradient of 0-0.5 M NaCl in buffer B over 30 min. at a flow rate of 4 mL/min. Fractions were assayed for activity and active fractions were pooled and desalted on PD-10 columns (Pharmacia) equilibrated with buffer A.
The substrate specificity of purified maize OTE was analyzed using several C^14 -labeled acyl-ACPs as described herein. […] Low activities (less than 10% of that observed with 18:1-ACP) were observed when using 12:0-ACP, 14:0-ACP, 16:0-ACP, 18:0-ACP.

maize OTE [2] = test: Thioesterase assay, substrate specificity of maize OTE expressed in E. coli; type: biochemical; conditions: for Percent Relative Activity: radio-labeled acyl-ACP, 100% = 2.1 units/mg protein
12:0-ACP (Laurate) [3] = target: 12:0-ACP (Laurate)
14:0-ACP (Myristate) [4] = target: 14:0-ACP (Myristate)
16:0-ACP (Palmitate) [5] = target: 16:0-ACP (Palmitate)
18:0-ACP (Stearate) [6] = target: 18:0-ACP (Stearate)
18:1-ACP (Oleate) [7] = target: 18:1-ACP (Oleate)
12:0-ACP (Laurate) [8] = target: 12:0-ACP (Laurate); remark: listed apart in the source
14:0-ACP (Myristate) [9] = target: 14:0-ACP (Myristate); remark: listed apart in the source
16:0-ACP (Palmitate) [10] = target: 16:0-ACP (Palmitate); remark: listed apart in the source
18:0-ACP (Stearate) [11] = target: 18:0-ACP (Stearate); remark: listed apart in the source
18:1-ACP (Oleate) [12] = target: 18:1-ACP (Oleate); remark: listed apart in the source
12:0-ACP (Laurate) [13] = target: 12:0-ACP (Laurate); remark: listed apart in the source
14:0-ACP (Myristate) [14] = target: 14:0-ACP (Myristate); remark: listed apart in the source
16:0-ACP (Palmitate) [15] = target: 16:0-ACP (Palmitate); remark: listed apart in the source
18:0-ACP (Stearate) [16] = target: 18:0-ACP (Stearate); remark: listed apart in the source
18:1-ACP (Oleate) [17] = target: 18:1-ACP (Oleate); remark: listed apart in the source

Molecule: 18:0-ACP: radio-labeled stearic acid thioester of acyl carrier protein, thioesterase substrate
- Percent Relative Activity (maize PTE): 61.2%
- activity relative to that observed with 18:1-ACP (maize OTE [1]): less than 10%
- Percent Relative Activity (maize OTE [2]): 25.2%

Molecule: maize oleoyl-ACP thioesterase, mature protein expressed in E. coli (pDAB371) (enzyme)
- Percent Relative Activity (thioesterase assay, release of radio-labeled free fatty acid) (% relative activity) (12:0-ACP (Laurate) [3]): 0.7
- Percent Relative Activity (thioesterase assay, release of radio-labeled free fatty acid) (% relative activity) (14:0-ACP (Myristate) [4]): 6.3
- Percent Relative Activity (thioesterase assay, release of radio-labeled free fatty acid) (% relative activity) (16:0-ACP (Palmitate) [5]): 14.1
- Percent Relative Activity (thioesterase assay, release of radio-labeled free fatty acid) (% relative activity) (18:0-ACP (Stearate) [6]): 25.2
- Percent Relative Activity (thioesterase assay, release of radio-labeled free fatty acid) (% relative activity) (18:1-ACP (Oleate) [7]): 100

Molecule: 18:1-ACP: radio-labeled oleic acid thioester of acyl carrier protein, thioesterase substrate
- Percent Relative Activity (maize PTE): 40.4%
- Km (maize OTE [1]): 0.75 µM
- Percent Relative Activity (maize OTE [2]): 100.0%

Molecule: maize oleoyl-ACP thioesterase, native protein from maize kernels and embryos (enzyme)
- substrate specificity (thioesterase assay with C14-labeled acyl-ACPs) (% of that observed with 18:1-ACP) (12:0-ACP (Laurate) [8]): < 10
- substrate specificity (thioesterase assay with C14-labeled acyl-ACPs) (% of that observed with 18:1-ACP) (14:0-ACP (Myristate) [9]): < 10
- Km (16:0-ACP (Palmitate) [10]): 25 µM
- substrate specificity (thioesterase assay with C14-labeled acyl-ACPs) (% of that observed with 18:1-ACP) (16:0-ACP (Palmitate) [10]): < 10
- substrate specificity (thioesterase assay with C14-labeled acyl-ACPs) (% of that observed with 18:1-ACP) (18:0-ACP (Stearate) [11]): < 10
- Km (18:1-ACP (Oleate) [12]): 0.75 µM

Molecule: 16:0-ACP: radio-labeled palmitic acid thioester of acyl carrier protein, thioesterase substrate
- Percent Relative Activity (maize PTE): 100.0%
- activity relative to that observed with 18:1-ACP (maize OTE [1]): less than 10%
- Km (maize OTE [1]): 25 µM
- Percent Relative Activity (maize OTE [2]): 14.1%

Molecule: maize palmitoyl-ACP thioesterase, mature protein expressed in E. coli (pDAB378) (enzyme)
- Percent Relative Activity (thioesterase assay, release of radio-labeled free fatty acid) (% relative activity) (12:0-ACP (Laurate) [13]): 0
- Percent Relative Activity (thioesterase assay, release of radio-labeled free fatty acid) (% relative activity) (14:0-ACP (Myristate) [14]): 16
- Percent Relative Activity (thioesterase assay, release of radio-labeled free fatty acid) (% relative activity) (16:0-ACP (Palmitate) [15]): 100
- Percent Relative Activity (thioesterase assay, release of radio-labeled free fatty acid) (% relative activity) (18:0-ACP (Stearate) [16]): 61.2
- Percent Relative Activity (thioesterase assay, release of radio-labeled free fatty acid) (% relative activity) (18:1-ACP (Oleate) [17]): 40.4

Molecule: 12:0-ACP: radio-labeled lauric acid thioester of acyl carrier protein, thioesterase substrate
- Percent Relative Activity (maize PTE): 0.0%
- activity relative to that observed with 18:1-ACP (maize OTE [1]): less than 10%
- Percent Relative Activity (maize OTE [2]): 0.7%

B1: maize PTE: maize palmitoyl-ACP thioesterase, mature protein expressed in E. coli from pDAB378 (protein)
chain: LPDWSMLLAAITTIFLAAEKQWTMLDWKPRRPDMLTDTFGFGRIIHDGLMFRQNFSIRSYEIGADRTASIETLMNHLQETALNHVKTAGLLGDGFGSTPEMSKRNLFWVVSQMQAIIERYPCWGDTVEVDTWVSANGKNGMRRDWHIRDPITGLTILKATSKWVMMNKLTRKLARIPDEVRTEIEPYFFEHSAIVDEDNRKLPKLPEGQSTSVAKYVRTGLTPRWADLDINQHVNNVKYIAWILESAPISILENHELASIVLDYKRECGRDSVLQSHTSVHTDCNSESGETTLHCEHVLSLESGPTMVKARTMWRPKGTKAQETVVPSSI
- specific activity equivalent to 100% relative activity (maize PTE; unit = cleavage of 1 μmol/h free fatty acid at 30° C., 16:0-ACP): 2.1 units/mg protein

B2: maize OTE: maize oleoyl-ACP thioesterase, purified from kernels or expressed in E. coli from pDAB371 (protein)
chain: CARGAPQVSGIEAASPGHAAVTAALAKAEGGDARPSLAERLRLGNLLEDGLSYKESFIVRCYEVGINKTATVETIANLLQEVGCNHAQSVGFSTDGFATTTTMRKLGLIWVTNRMHIEIYKYPAWGDVVEIETWCQEDGRIGTRRDWILKDLANGEVIGRATSKWVMMNQNTRRLQRVSDDVRDEVFMHCPKAPRLAFPEENNGSLKKIPNLSDPAEYSRLGLVPRRADLDMNQHVNNVTYIGWVLESIPQDIIDTHELQTITLDYRRECQQDDIVDSLTCIEEGEEKSMNGSASAAAPHKEERQQFLHCLRFAANGHEINRGRTVWRKLAR
- specific activity equivalent to 100% relative activity (maize OTE [2]; unit = cleavage of 1 μmol/h free fatty acid at 30° C., 18:1-ACP): 2.1 units/mg protein
